Numbering of substitutions follows the chain as printed.
T1: biotinylated IL-2 receptor beta gamma heterodimer Fc (IL-2RBG; Acro ILG-H5254) (UniProt P14784 27-239; P31785 23-262, biotinylated)
T1 construct: bought heterodimer
T1 sequence (looked up) 1: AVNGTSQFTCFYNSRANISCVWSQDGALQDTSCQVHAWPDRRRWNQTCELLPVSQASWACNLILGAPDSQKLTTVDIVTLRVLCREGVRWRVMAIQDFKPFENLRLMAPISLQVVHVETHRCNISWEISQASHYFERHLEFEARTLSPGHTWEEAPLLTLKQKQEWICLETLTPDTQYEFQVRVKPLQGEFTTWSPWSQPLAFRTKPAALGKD
T1 sequence (looked up) 2: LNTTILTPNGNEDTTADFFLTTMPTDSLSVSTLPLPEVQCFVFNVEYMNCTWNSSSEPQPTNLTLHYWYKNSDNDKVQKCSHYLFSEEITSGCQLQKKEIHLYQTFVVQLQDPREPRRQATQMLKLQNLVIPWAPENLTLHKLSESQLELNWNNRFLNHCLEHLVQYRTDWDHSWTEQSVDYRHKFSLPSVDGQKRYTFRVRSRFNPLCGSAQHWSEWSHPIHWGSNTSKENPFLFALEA

B1: AF003657 (other)
heavy: APASSSTKKTQLQLEHLLLDLQMILNGINNYKNPKLTRMLTAKFAMPKKATELKHLQCLEEELKPLEEVLNGAQSKNFHLRPRDLISNINVIVLELKGSETTFMCEYADETATIVEFLNRWITFAQSIISTLTGGGGSGGGGSGGGGSGGGGSQVQLVQSGAEVKKPGASVKVSCKASGDTFTRYYVHWVRQAPGQGLEWMGIINPSGGYASYAQKFQGRVTMTRDTSTSTVYMELSSLRSEDTAVYYCAAGLFIWGQGTLVTVSSAKTTAPSVYPLAPVCGDTTGSSVTLGCLVKGYFPEPVTLTWNSGSLSSGVHTFPAVLQSDLYTLSSSVTVTSSTWPSQSITCNVAHPASSTKVDKKIEPRGPTIKPCPPCKCPAPNAAGGPSVFIFPPKIKDVLMISLSPIVTCVVVDVSEDDPDVQISWFVNNVEVHTAQTQTHREDYNSTLRVVSALPIQHQDWMSGKEFKCKVNNKDLGAPIERTISKPKGSVRAPQVYVLPPPEEEMTKKQVTLTCMVTDFMPEDIYVEWTNNGKTELNYKNTEPVLDSDGSYFMYSKLRVEKKNWVERNSYSCSVVHEGLHNHHTTKSFSRTPGK
light: DIQMTQSPSSLSASVGDRVTITCRASQSIGRWLAWYQQKPGKAPKLLIYSASNLETGVPSRFSGSGSGTDFTLTISSLQPEDFATYYCQQYESFPVTFGPGTKVDIKRADAAPTVSIFPPSSEQLTSGGASVVCFLNNFYPKDINVKWKIDGSERQNGVLNSWTDQDSKDSTYSMSSTLTLTKDEYERHNSYTCEATHKTSTSPIVKSFNRNEC
notes: also called AF3657
B2: AF003947 (other)
heavy 1: B1 heavy with K558D, K588E
heavy 2: QVQLVQSGAEVKKPGASVKVSCKASGDTFTRYYVHWVRQAPGQGLEWMGIINPSGGYASYAQKFQGRVTMTRDTSTSTVYMELSSLRSEDTAVYYCAAGLFIWGQGTLVTVSSAKTTAPSVYPLAPVCGDTTGSSVTLGCLVKGYFPEPVTLTWNSGSLSSGVHTFPAVLQSDLYTLSSSVTVTSSTWPSQSITCNVAHPASSTKVDKKIEPRGPTIKPCPPCKCPAPNAAGGPSVFIFPPKIKDVLMISLSPIVTCVVVDVSEDDPDVQISWFVNNVEVHTAQTQTHREDYNSTLRVVSALPIQHQDWMSGKEFKCKVNNKDLGAPIERTISKPKGSVRAPQVYVLPPPEKEMTKKQVSLTCLVKDFMPEDIYVEWTNNGKTELNYKNTEPVLKSDGSYFMYSKLTVEKKNWVERNSYSCSVVHEGLHNHHTTKSFSRTPGGGGSGGGSHHHHHH
light: B1 light with S93R
notes: also called AF3947
B3: AF003740 (other)
heavy 1: B1 heavy with K558D, K588E
heavy 2: QVQLVQSGAEVKKPGASVKVSCKASGDTFTRYYVHWVRQAPGQGLEWMGIINPSGGYASYAQKFQGRVTMTRDTSTSTVYMELSSLRSEDTAVYYCAAGLFIWGQGTLVTVSSAKTTAPSVYPLAPVCGDTTGSSVTLGCLVKGYFPEPVTLTWNSGSLSSGVHTFPAVLQSDLYTLSSSVTVTSSTWPSQSITCNVAHPASSTKVDKKIEPRGPTIKPCPPCKCPAPNAAGGPSVFIFPPKIKDVLMISLSPIVTCVVVDVSEDDPDVQISWFVNNVEVHTAQTQTHREDYNSTLRVVSALPIQHQDWMSGKEFKCKVNNKDLGAPIERTISKPKGSVRAPQVYVLPPPEKEMTKKQVSLTCLVKDFMPEDIYVEWTNNGKTELNYKNTEPVLKSDGSYFMYSKLTVEKKNWVERNSYSCSVVHEGLHNHHTTKSFSRTPGK
light: B1 light with E92N
notes: also called AF3740
B4: AF003934 (other)
heavy: APASSSTKKTQLQLEHLLLDLQMILNGINNYKNPKLTRMLTAKFAMPKKATELKHLQCLEEELKPLEEVLNGAQSKNFHLRPRDLISNINVIVLELKGSETTFMCEYADETATIVEFLNRWITFAQSIISTLTGGGGSGGGGSGGGGSGGGGSQVQLVQSGAEVKKPGASVKVSCKASGYTFTRYYMHWVRQAPGQGLEWMGIINPRAGYTSYALKFQGRVTMTRDTSTSTVYMELSSLRSEDTAVYYCTSGWDVWGQGTLVTVSSAKTTAPSVYPLAPVCGDTTGSSVTLGCLVKGYFPEPVTLTWNSGSLSSGVHTFPAVLQSDLYTLSSSVTVTSSTWPSQSITCNVAHPASSTKVDKKIEPRGPTIKPCPPCKCPAPNAAGGPSVFIFPPKIKDVLMISLSPIVTCVVVDVSEDDPDVQISWFVNNVEVHTAQTQTHREDYNSTLRVVSALPIQHQDWMSGKEFKCKVNNKDLGAPIERTISKPKGSVRAPQVYVLPPPEEEMTKKQVTLTCMVTDFMPEDIYVEWTNNGKTELNYKNTEPVLDSDGSYFMYSKLRVEKKNWVERNSYSCSVVHEGLHNHHTTKSFSRTPGK
light: B1 light with G30S, R31T, S50A, N53S, E55D, T56S, Y91S, E92Y, P100Q, D105E
notes: also called AF3934
B5: AF003644 (other)
heavy: B1 heavy
light: B1 light with E92N
notes: also called AF3644
B6: AF003232 (other)
heavy 1: B1 heavy with Y185H, K558D, K588E
heavy 2: B2 heavy 2 with Y32H
light: B1 light
notes: also called AF3232
B7: AF003651 (other)
heavy: B1 heavy
light: B1 light with W32Y, E92N
notes: also called AF3651
B8: AF003747 (other)
heavy 1: B1 heavy with K558D, K588E
heavy 2: B3 heavy 2
light: B1 light with W32Y, E92N
notes: also called AF3747
B9: AF003945 (other)
heavy 1: B1 heavy with K558D, K588E
heavy 2: B2 heavy 2
light: B1 light with R31S, E92N
notes: also called AF3945
B10: AF003247 (other)
heavy: B1 heavy with Y185H
light: B1 light
notes: also called AF3247
B11: AF003753 (other)
heavy 1: B1 heavy with K558D, K588E
heavy 2: B3 heavy 2
light: B1 light
notes: also called AF3753
B12: AF003749 (other)
heavy 1: B1 heavy with K558D, K588E
heavy 2: B3 heavy 2
light: B1 light with W32Y, S50Y, E92N
notes: also called AF3749

Biological target: T1, biotinylated IL-2 receptor beta gamma …
Assay: ELISA, captured complex, biotin-IL-2RBG 10 nM, PD-1 Fc titrated
Protocol: The DBA-cytokine complexes and control antibody-cytokine complexes were produced in two formats: (1) “Symmetric” immunocytokine (shown in FIG. 2E); or (2) “Asymmetric” immunocytokine (shown in FIG. 2B) by expression in mammalian cells and purified using standard protocols. […] To perform the assay, 384-well ELISA plates were coated with anti-Fc antibody at 1 micrograms/ml in 100 mM bicarbonate solution pH 9.0 overnight at 4° C. and washed twice with SUPERBLOCK™. Antibody-cytokine complexes were then added to each well at a constant concentration of 6 nM and allowed to incubate for 1 hour and washed three times in PBS plus 0.05% TWEEN® 20 (PBST). Titrated concentrations of PD-1 Fc or an IgG1 control Fc were added and allowed to incubate for 15 minutes before the addition of a constant amount of biotinylated IL-2RBG at 10 nM. The plates were incubated for an additional 30 minutes, washed and biotinylated IL-2RBG detection was performed using streptavidin-HRP and standard ELISA protocols.

Binding result, binds:
B1
B2
B3
B4
B5
B6
B7
B8
B9
B10
B11
B12

Reference: patent US20240366776A1 (Hoffmann-La Roche, published 2024)
